From article PMC6532066 (Nature, 2019)
Read-outs that look alike come from different tables or passages of the source.

T1: LptF (E. coli K-12, UniProt P0AF98)
T1 sequence: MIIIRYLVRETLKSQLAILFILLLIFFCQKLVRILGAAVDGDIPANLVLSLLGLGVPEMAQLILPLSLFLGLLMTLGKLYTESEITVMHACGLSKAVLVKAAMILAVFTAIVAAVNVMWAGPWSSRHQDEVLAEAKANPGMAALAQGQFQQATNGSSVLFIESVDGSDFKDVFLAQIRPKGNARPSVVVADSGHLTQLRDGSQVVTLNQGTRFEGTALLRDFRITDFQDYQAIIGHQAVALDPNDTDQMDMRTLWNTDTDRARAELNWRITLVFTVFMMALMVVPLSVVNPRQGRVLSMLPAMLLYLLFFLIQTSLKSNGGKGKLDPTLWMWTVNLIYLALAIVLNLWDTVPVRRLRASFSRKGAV

T2: LptG (E. coli K-12, UniProt P0ADC6)
T2 sequence: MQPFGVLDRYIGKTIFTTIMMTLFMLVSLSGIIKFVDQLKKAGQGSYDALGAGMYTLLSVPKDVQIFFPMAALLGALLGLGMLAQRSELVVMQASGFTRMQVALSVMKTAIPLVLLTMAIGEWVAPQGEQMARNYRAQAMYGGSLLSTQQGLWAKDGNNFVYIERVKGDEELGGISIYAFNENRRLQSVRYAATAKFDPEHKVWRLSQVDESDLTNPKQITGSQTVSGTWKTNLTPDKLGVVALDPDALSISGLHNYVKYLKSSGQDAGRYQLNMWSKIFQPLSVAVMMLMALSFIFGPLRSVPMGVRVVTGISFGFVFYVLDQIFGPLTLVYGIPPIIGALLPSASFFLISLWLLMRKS


How the values were obtained:
Assay in all cases: cryo-EM structure
LptF [1] = biological target: T1, LptF
LptG = biological target: T2, LptG
LptF [2] = biological target: T1, LptF; remark: listed apart in the source

Row | binding result (LptF [1]) | binding result (LptG) | binding result (LptF [2]) | Binder
1 | binds | binds |  | LptB (natural protein) MATLTAKNLAKAYKGRRVVEDVSLTVNSGEIVGLLGPNGAGKTTTFYMVVGIVPRDAGNIIIDDDDISLLPLHARARRGIGYLPQEASIFRRLSVYDNLMAVLQIRDDLSAEQREDRANELMEEFHIEHLRDSMGQSLSGGERRRVEIARALAANPKFILLDEPFAGVDPISVIDIKRIIEHLRDSGLGVLITDHNVRETLAVCERAYIVSQGHLIAHGTPTEILQDEHVKRVYLGEDFRL
2 |  |  | binds | LptC (natural protein) MSKARRWVIIVLSLAVLVMIGINMAEKDDTAQVVVNNNDPTYKSEHTDTLVYNPEGALSYRLIAQHVEYYSDQAVSWFTQPVLTTFDKDKIPTWSVKADKAKLTNDRMLYLYGHVEVNALVPDSQLRRITTDNAQINLVTQDVTSEDLVTLYGTTFNSSGLKMRGNLRSKNAELIEKVRTSYEIQNKQTQP
